Source: the supplement of paper PMC11246515
± gives the standard deviation of the averaged measurements.

Assay: total protein half-life in vivo (active degradation + dilution); higher = more stable protein
[1] = E. coli NCM3722 delta-clpP delta-lon delta-hslV, growth: N-lim chemostat, doubling time 6 h
[2] = E. coli NCM3722 delta-clpP, growth: N-lim chemostat, doubling time 6 h
[3] = E. coli NCM3722 delta-hslV, growth: N-lim chemostat, doubling time 6 h
[4] = E. coli NCM3722 delta-lon, growth: N-lim chemostat, doubling time 6 h
[5] = E. coli NCM3722 delta-smpB, growth: N-lim chemostat, doubling time 6 h
[6] = wild type E. coli NCM3722, growth: C-lim chemostat, doubling time 3 h
[7] = wild type E. coli NCM3722, growth: C-lim chemostat, doubling time 6 h
[8] = wild type E. coli NCM3722, growth: C-lim chemostat, doubling time 12 h
[9] = wild type E. coli NCM3722, growth: N-lim chemostat, doubling time 6 h
[10] = wild type E. coli NCM3722, growth: N-lim chemostat, doubling time 12 h
[11] = wild type E. coli NCM3722, growth: P-lim chemostat, doubling time 6 h
[12] = wild type E. coli NCM3722, growth: P-lim chemostat, doubling time 12 h

Sequence | total protein half-life in vivo [1] [h] | total protein half-life in vivo [2] [h] | total protein half-life in vivo [3] [h] | total protein half-life in vivo [4] [h] | total protein half-life in vivo [5] [h] | total protein half-life in vivo [6] [h] | total protein half-life in vivo [7] [h] | total protein half-life in vivo [8] [h] | total protein half-life in vivo [9] [h] | total protein half-life in vivo [10] [h] | total protein half-life in vivo [11] [h] | total protein half-life in vivo [12] [h]
MSKTHLTEQKFSDFALHPKVVEALEKKGFHNCTPIQALALPLTLAGRDVAGQAQTGTGKTMAFLTSTFHYLLSHPAIADRKVNQPRALIMAPTRELAVQIHADAEPLAEATGLKLGLAYGGDGYDKQLKVLESGVDILIGTTGRLIDYAKQNHINLGAIQVVVLDEADRMYDLGFIKDIRWLFRRMPPANQRLNMLFSATLSYRVRELAFEQMNNAEYIEVEPEQKTGHRIKEELFYPSNEEKMRLLQTLIEEEWPDRAIIFANTKHRCEEIWGHLAADGHRVGLLTGDVAQKKRLRILDEFTRGDLDILVATDVAARGLHIPAVTHVFNYDLPDDCEDYVHRIGRTGRAGASGHSISLACEEYALNLPAIETYIGHSIPVSKYNPDALMTDLPKPLRLTRPRTGNGPRRTGAPRNRRRSG [P0A8J8] | 6.02 ± 0.1 | 5.9 ± 0.37 | 5.52 ± 0.76 | 5.16 ± 0.18 | 4.94 ± 0.49 | 3.18 ± 0.11 | 5.73 ± 0.11 | 9.86 ± 0.77 | 4.71 ± 0.18 | 7.89 ± 0.44 | 5.06 ± 0.39 | 9.85 ± 0.23
MSKVCIIAWVYGRVQGVGFRYTTQYEAKRLGLTGYAKNLDDGSVEVVACGEEGQVEKLMQWLKSGGPRSARVERVLSEPHHPSGELTDFRIR [P0AB65] | 6.07 ± 0.29 | 5.82 ± 0.093 | 5.59 ± 0.28 | 5.89 ± 0.12 | 5.9 ± 0.89 | 3.38 ± 0.23 | 5.96 ± 0.08 | 8.66 | 5.32 ± 0.17 | 9.77 ± 1.8 | – | –
MSKVKSITRESWILSTFPEWGSWLNEEIEQEQVAPGTFAMWWLGCTGIWLKSEGGTNVCVDFWCGTGKQSHGNPLMKQGHQMQRMAGVKKLQPNLRTTPFVLDPFAIRQIDAVLATHDHNDHIDVNVAAAVMQNCADDVPFIGPKTCVDLWIGWGVPKERCIVVKPGDVVKVKDIEIHALDAFDRTALITLPADQKAAGVLPDGMDDRAVNYLFKTPGGSLYHSGDSHYSNYYAKHGNEHQIDVALGSYGENPRGITDKMTSADMLRMGEALNAKVVIPFHHDIWSNFQADPQEIRVLWEMKKDRLKYGFKPFIWQVGGKFTWPLDKDNFEYHYPRGFDDCFTIEPDLPFKSFL | 5.04 ± 0.82 | – | – | – | – | 3.56 | – | 11.2 | – | – | 3.67 ± 0.66 | 9.39
MSKVRLAIIGNGMVGHRFIEDLLDKSDAANFDITVFCEEPRIAYDRVHLSSYFSHHTAEELSLVREGFYEKHGIKVLVGERAITINRQEKVIHSSAGRTVFYDKLIMATGSYPWIPPIKGSDTQDCFVYRTIEDLNAIESCARRSKRGAVVGGGLLGLEAAGALKNLGIETHVIEFAPMLMAEQLDQMGGEQLRRKIESMGVRVHTSKNTLEIVQEGVEARKTMRFADGSELEVDFIVFSTGIRPRDKLATQCGLDVAPRGGIVINDSCQTSDPDIYAIGECASWNNRVFGLVAPGYKMAQVAVDHILGSENAFEGADLSAKLKLLGVDVGGIGDAHGRTPGARSYVYLDESKEIYKRLIVSEDNKTLLGAVLVGDTSDYGNLLQLVLNAIELPENPDSLILPAHSGSGKPSIGVDKLPDSAQICSCFDVTKGDLIAAINKGCHTVAALKAETKAGTGCGGCIPLVTQVLNAELAKQGIEVNNNLCEHFAYSRQELFHLIRVEGIKTFEELLAKHGKGYGCEVCKPTVGSLLASCWNEYILKPEHTPLQDSNDNFLANIQKDGTYSVIPRSPGGEITPEGLMAVGRIAREFNLYTKITGSQRLAMFGAQKDDLPEIWRQLIEAGFETGHAYAKALRMAKTCVGSTWCRYGVGDSVGLGVELENRYKGIRTPHKMKFGVSGCTRECSEAQGKDVGIIATEKGWNLYVCGNGGMKPRHADLLAADIDRETLIKYLDRFMMFYIRTADKLTRTAPWLENLEGGIDYLKAVIIDDKLGLNAHLEEEMARLREAVLCEWTETVNTPSAQTRFKHFINSDKRDPNVQMVPEREQHRPATPYERIPVTLVEDNA | 6.11 | 5.71 | – | – | – | – | – | – | – | 6.72 | – | –
MSLAGKKIVLGVSGGIAAYKTPELVRRLRDRGADVRVAMTEAAKAFITPLSLQAVSGYPVSDSLLDPAAEAAMGHIELGKWADLVILAPATADLIARVAAGMANDLVSTICLATPAPVAVLPAMNQQMYRAAATQHNLEVLASRGLLIWGPDSGSQACGDIGPGRMLDPLTIVDMAVAHFSPVNDLKHLNIMITAGPTREPLDPVRYISNHSSGKMGFAIAAAAARRGANVTLVSGPVSLPTPPFVKRVDVMTALEMEAAVNASVQQQNIFIGCAAVADYRAATVAPEKIKKQATQGDELTIKMVKNPDIVAGVAALKDHRPYVVGFAAETNNVEEYARQKRIRKNLDLICANDVSQPTQGFNSDNNALHLFWQDGDKVLPLERKELLGQLLLDEIVTRYDEKNRR [P0ABQ0] | 6.25 ± 0.61 | 6.16 ± 0.64 | 5.48 ± 0.55 | 5.48 ± 0.67 | 4.75 ± 0.079 | 3.15 ± 0.096 | 5.63 ± 0.26 | 12.5 ± 3.3 | 4.7 ± 0.6 | 8.72 ± 0.93 | 6.17 ± 0.24 | 11.8 ± 0.15
MSLFHLIAPSGYCIKQHAALRGIQRLTDAGHQVNNVEVIARRCERFAGTETERLEDLNSLARLTTPNTIVLAVRGGYGASRLLADIDWQALVARQQHDPLLICGHSDFTAIQCGLLAHGNVITFSGPMLVANFGADELNAFTEHHFWLALRNETFTIEWQGEGPTCRAEGTLWGGNLAMLISLIGTPWMPKIENGILVLEDINEHPFRVERMLLQLYHAGILPRQKAIILGSFSGSTPNDYDAGYNLESVYAFLRSRLSIPLITGLDFGHEQRTVTLPLGAHAILNNTREGTQLTISGHPVLKM | 4.96 ± 0.9 | 3.76 ± 0.25 | 4.05 ± 0.72 | 4.07 ± 0.22 | 3.65 ± 0.53 | 3.13 ± 0.084 | 5 ± 0.86 | 9.85 ± 0.41 | 3.693 ± 0.016 | 6.99 ± 0.87 | 6.058 ± 0.043 | 10.8 ± 0.56
MSLINTKIKPFKNQAFKNGEFIEITEKDTEGRWSVFFFYPADFTFVCPTELGDVADHYEELQKLGVDVYAVSTDTHFTHKAWHSSSETIAKIKYAMIGDPTGALTRNFDNMREDEGLADRATFVVDPQGIIQAIEVTAEGIGRDASDLLRKIKAAQYVASHPGEVCPAKWKEGEATLAPSLDLVGKI [P0AE08] | 2.82 ± 0.23 | 2.22 ± 0.28 | 1.91 ± 0.12 | 2.26 ± 0.079 | 2.119 ± 0.01 | 2.89 ± 0.21 | 5.05 ± 0.11 | 7.67 ± 0.6 | 2.03 ± 0.16 | 2.6085 ± 0.0015 | 5.49 ± 0.38 | 9.52 ± 0.29
MSLPHCPKCNSEYTYEDNGMYICPECAYEWNDAEPAQESDELIVKDANGNLLADGDSVTIIKDLKVKGSSSMLKIGTKVKNIRLVEGDHNIDCKIDGFGPMKLKSEFVKKN [P0AFJ1] | 5.52 ± 0.25 | – | 6.14 ± 1.1 | 5.91 ± 1 | 4.71 ± 0.15 | 2.53 ± 0.093 | – | 10.2 ± 0.45 | 4.88 | 10.2 ± 0.21 | 5.38 ± 0.21 | –
MSLPMLQVALDNQTMDSAYETTRLIAEEVDIIEVGTILCVGEGVRAVRDLKALYPHKIVLADAKIADAGKILSRMCFEANADWVTVICCADINTAKGALDVAKEFNGDVQIELTGYWTWEQAQQWRDAGIGQVVYHRSRDAQAAGVAWGEADITAIKRLSDMGFKVTVTGGLALEDLPLFKGIPIHVFIAGRSIRDAASPVEAARQFKRSIAELWG | 5.41 | 2.49 | 2.68 | – | 4.15 ± 2.2 | 2.29 ± 0.076 | 5.11 ± 1.5 | 5.84 ± 1.4 | – | – | 2.69 | 3.39
MSLSLWQQCLARLQDELPATEFSMWIRPLQAELSDNTLALYAPNRFVLDWVRDKYLNNINGLLTSFCGADAPQLRFEVGTKPVTQTPQAAVTSNVAAPAQVAQTQPQRAAPSTRSGWDNVPAPAEPTYRSNVNVKHTFDNFVEGKSNQLARAAARQVADNPGGAYNPLFLYGGTGLGKTHLLHAVGNGIMARKPNAKVVYMHSERFVQDMVKALQNNAIEEFKRYYRSVDALLIDDIQFFANKERSQEEFFHTFNALLEGNQQIILTSDRYPKEINGVEDRLKSRFGWGLTVAIEPPELETRVAILMKKADENDIRLPGEVAFFIAKRLRSNVRELEGALNRVIANANFTGRAITIDFVREALRDLLALQEKLVTIDNIQKTVAEYYKIKVADLLSKRRSRSVARPRQMAMALAKELTNHSLPEIGDAFGGRDHTTVLHACRKIEQLREESHDIKEDFSNLIRTLSS | 5.49 ± 0.27 | 4.24 ± 0.24 | 2.83 ± 0.047 | 3.85 ± 0.16 | 2.8675 ± 0.00078 | 2.183 ± 0.021 | 3.897 ± 0.019 | 5.25 ± 0.15 | 2.94 ± 0.26 | 3.79 ± 0.058 | 3.61 ± 0.12 | 6.1 ± 0.38
MSLSRTQIVNWLTRCGDIFSTESEYLTGLDREIGDADHGLNMNRGFSKVVEKLPAIADKDIGFILKNTGMTLLSSVGGASGPLFGTFFIRAAQATQARQSLTLEELYQMFRDGADGVISRGKAEPGDKTMCDVWVPVVESLRQSSEQNLSVPVALEAASSIAESAAQSTITMQARKGRASYLGERSIGHQDPGATSVMFMMQMLALAAKE | 4.62 ± 0.54 | 4.25 ± 0.72 | 4.36 ± 0.067 | 4.75 ± 0.52 | 4.23 ± 0.14 | 2.93 ± 0.12 | 5.43 ± 0.13 | 9.74 ± 0.25 | 4.432 ± 0.04 | 7.23 ± 0.11 | 4.75 ± 1.6 | 11.8 ± 0.41
MSLTRLLIRDFRNIETADLALSPGFNFLVGANGSGKTSVLEAIYTLGHGRAFRSLQIGRVIRHEQEAFVLHGRLQGEERETAIGLTKDKQGDSKVRIDGTDGHKVAELAHLMPMQLITPEGFTLLNGGPKYRRAFLDWGCFHNEPGFFTAWSNLKRLLKQRNAALRQVTRYEQLRPWDKELIPLAEQISTWRAEYSAGIAADMADTCKQFLPEFSLTFSFQRGWEKETEYAEVLERNFERDRQLTYTAHGPHKADLRIRADGAPVEDTLSRGQLKLLMCALRLAQGEFLTRESGRRCLYLIDDFASELDDERRGLLASRLKATQSQVFVSAISAEHVIDMSDENSKMFTVEKGKITD [P0A7H0] | 5.54 ± 0.29 | 4.43 ± 0.14 | 3.95 ± 0.053 | 4.92 ± 0.21 | 3.93 ± 0.32 | – | 5.07 ± 0.41 | 9.88 ± 0.3 | 4.32 ± 0.1 | 8.32 ± 0.12 | 4.06 ± 1 | 7.31 ± 0.63
MSLVCSVIFIHHAFNANILDKDYAFSDGEILMVDNAVRTHFEPYERHFKEIGFTENTIKKYLQCTNIQTVTVPVPAKFLRASNVPTGLLNEMIAYLNSEERNHHNFSELLLFSCLSIFAACKGFITLLTNGVLSVSGKVRNIVNMKPAHPWKLKDICDCLYISESLLKKKLKQEQTTFSQILLDARMQHAKNLIRVEGSVNKIAEQCGYASTSYFIYAFRKHFGNSPKRVSKEYRCQSHTGMNTGNTMNALAI | 4.92 | – | – | – | – | – | – | – | – | – | – | –
MSLVTDLPAIFDQFSEARQTGFLTVMDLKERGIPLVGTYCTFMPQEIPMAAGAVVVSLCSTSDETIEEAEKDLPRNLCPLIKSSYGFGKTDKCPYFYFSDLVVGETTCDGKKKMYEYMAEFKPVHVMQLPNSVKDDASRALWKAEMLRLQKTVEERFGHEISEDALRDAIALKNRERRALANFYHLGQLNPPALSGSDILKVVYGATFRFDKEALINELDAMTARVRQQWEEGQRLDPRPRILITGCPIGGAAEKVVRAIEENGGWVVGYENCTGAKATEQCVAETGDVYDALADKYLAIGCSCVSPNDQRLKMLSQMVEEYQVDGVVDVILQACHTYAVESLAIKRHVRQQHNIPYIAIETDYSTSDVGQLSTRVAAFIEML | – | – | – | – | – | 1.59 ± 0.089 | 1.98 | 2.51 ± 0.083 | – | – | – | –
